A word on the Km: it is the substrate concentration at which the rate is half of its maximum. The Vmax is the rate approached at saturating substrate.

Data set [1] has as its target T1, SmAChE1 (Schistosoma mansoni, UniProt Q71SU7).
T1 construct: full length minus signal peptide, C-terminal 6-His tag (pPICZalphaA), secreted from Pichia pastoris X-33, IMAC purified; synthetic ORF
Briefly: Ellman assay, inhibition of AcSCh hydrolysis. The class given is biochemical. Conditions: AcSCh 2 mM; 20 min preincubation at RT; pH 7.4; organophosphate. For orientation: In Ellman's method for cholinesterases, released thiocholine reacts with DTNB.

Data set [2] deals with T2, SmAChE2 (Schistosoma mansoni, UniProt A0A3Q0KMM5).
T2 construct: full length minus signal peptide, C-terminal 6-His tag (pPICZalphaA), secreted from Pichia pastoris X-33, IMAC purified; synthetic ORF
T2 sequence (A0A3Q0KMM5 entry or part of it): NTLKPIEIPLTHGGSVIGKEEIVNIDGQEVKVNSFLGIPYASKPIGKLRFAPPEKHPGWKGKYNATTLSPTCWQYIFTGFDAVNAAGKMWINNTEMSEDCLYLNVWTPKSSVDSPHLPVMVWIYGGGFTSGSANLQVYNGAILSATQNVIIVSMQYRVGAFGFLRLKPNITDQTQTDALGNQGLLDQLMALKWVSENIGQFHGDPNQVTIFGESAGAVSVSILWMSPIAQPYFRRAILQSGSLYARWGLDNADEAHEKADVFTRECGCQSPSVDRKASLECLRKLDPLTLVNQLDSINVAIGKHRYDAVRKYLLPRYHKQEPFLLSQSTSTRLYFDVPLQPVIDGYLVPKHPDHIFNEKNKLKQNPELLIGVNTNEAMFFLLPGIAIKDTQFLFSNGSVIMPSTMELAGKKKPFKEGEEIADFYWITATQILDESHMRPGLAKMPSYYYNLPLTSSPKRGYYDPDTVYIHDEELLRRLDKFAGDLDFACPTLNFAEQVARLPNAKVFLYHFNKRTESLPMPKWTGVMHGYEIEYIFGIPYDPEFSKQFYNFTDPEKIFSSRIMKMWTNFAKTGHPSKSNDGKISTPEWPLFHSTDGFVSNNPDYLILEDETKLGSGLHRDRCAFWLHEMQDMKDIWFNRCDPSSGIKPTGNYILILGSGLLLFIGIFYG
Briefly: Ellman assay, inhibition of AcSCh hydrolysis. The class given is biochemical. Conditions: AcSCh 2 mM; 20 min preincubation at RT; pH 7.4; organophosphate.

The target of data set [3] is T3, SmBChE1 (Schistosoma mansoni, UniProt A0A3Q0KKW0).
T3 construct: full length minus signal peptide, C-terminal 6-His tag (pPICZalphaA), secreted from Pichia pastoris X-33, IMAC purified; synthetic ORF
T3 sequence (A0A3Q0KKW0 entry or part of it): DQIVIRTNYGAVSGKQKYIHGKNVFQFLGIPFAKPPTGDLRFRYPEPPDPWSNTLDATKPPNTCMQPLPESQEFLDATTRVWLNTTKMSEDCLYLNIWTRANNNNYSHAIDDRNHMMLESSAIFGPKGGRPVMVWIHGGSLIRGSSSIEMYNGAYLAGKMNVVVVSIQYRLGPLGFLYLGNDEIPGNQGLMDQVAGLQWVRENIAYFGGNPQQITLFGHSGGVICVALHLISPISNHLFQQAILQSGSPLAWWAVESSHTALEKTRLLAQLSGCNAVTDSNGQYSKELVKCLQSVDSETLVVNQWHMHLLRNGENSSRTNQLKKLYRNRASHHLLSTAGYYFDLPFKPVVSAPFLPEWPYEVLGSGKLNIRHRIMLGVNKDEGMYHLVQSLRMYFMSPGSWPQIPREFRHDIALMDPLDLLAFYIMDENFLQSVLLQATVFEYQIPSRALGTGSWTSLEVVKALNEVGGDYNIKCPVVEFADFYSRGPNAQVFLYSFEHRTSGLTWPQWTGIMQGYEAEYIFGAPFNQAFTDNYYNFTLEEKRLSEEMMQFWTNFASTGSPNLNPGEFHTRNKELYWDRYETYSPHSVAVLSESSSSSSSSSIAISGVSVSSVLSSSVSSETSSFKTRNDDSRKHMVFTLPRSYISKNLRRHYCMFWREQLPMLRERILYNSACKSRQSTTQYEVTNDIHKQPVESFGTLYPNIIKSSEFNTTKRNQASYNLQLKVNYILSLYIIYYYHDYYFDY
Briefly: Ellman assay, inhibition of BcSCh hydrolysis. The class given is biochemical. The settings on record: BcSCh 2 mM; 20 min preincubation at RT; pH 7.4; organophosphate.

Data set [4] deals with T3, SmBChE1. Briefly: Ellman assay, inhibition of BcSCh hydrolysis. The class given is biochemical. Conditions: BcSCh 2 mM; 20 min preincubation at RT; pH 7.4.
Data set [5] deals with CC(=O)SCC[N+](C)(C)C. Briefly: purified protein. The class given is biochemical, Schistosoma mansoni. Conditions: 0.1 M sodium phosphate, pH 7.4, 0.5 mM DTNB.
Data set [6] deals with CCCC(=O)SCC[N+](C)(C)C. Briefly: purified protein. Conditions: 0.1 M sodium phosphate, pH 7.4, 0.5 mM DTNB. Type of data set: biochemical, Schistosoma mansoni.

T1 sequence (Q71SU7 entry or part of it): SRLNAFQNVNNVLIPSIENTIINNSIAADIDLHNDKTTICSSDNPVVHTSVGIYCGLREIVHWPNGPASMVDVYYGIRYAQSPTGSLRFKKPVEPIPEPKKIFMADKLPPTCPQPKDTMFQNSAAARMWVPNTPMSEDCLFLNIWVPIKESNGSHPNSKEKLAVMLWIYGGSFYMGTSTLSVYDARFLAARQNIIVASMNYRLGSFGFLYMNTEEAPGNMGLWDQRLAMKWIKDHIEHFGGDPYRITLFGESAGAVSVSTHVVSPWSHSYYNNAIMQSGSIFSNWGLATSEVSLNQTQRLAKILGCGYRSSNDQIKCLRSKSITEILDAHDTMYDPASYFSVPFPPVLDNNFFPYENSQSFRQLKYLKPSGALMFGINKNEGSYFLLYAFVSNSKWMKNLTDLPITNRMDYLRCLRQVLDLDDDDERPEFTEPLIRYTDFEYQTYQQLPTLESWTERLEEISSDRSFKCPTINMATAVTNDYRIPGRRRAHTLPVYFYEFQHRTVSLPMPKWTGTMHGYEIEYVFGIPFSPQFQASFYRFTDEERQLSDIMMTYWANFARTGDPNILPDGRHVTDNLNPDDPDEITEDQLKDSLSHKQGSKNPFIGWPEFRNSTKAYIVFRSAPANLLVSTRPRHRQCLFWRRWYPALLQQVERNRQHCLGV

For `COP(=O)(OC)OC=C(Cl)Cl` [DDVP, 2,2-dichlorovinyl dimethyl phosphate], the “inhibition at 1 μM” value in data set [1] is “preferred substrate activity of both SmAChE1 and SmAChE2 was inhibited by DDVP”; in data set [2] it was “preferred substrate activity of both SmAChE1 and SmAChE2 was inhibited by DDVP”. For the same compound, the “inhibition at 1, 5 and 10 μM” value in data set [3] is “BChE activity of schistosome extracts and recombinant SmBChE1 significantly decreased in the presence of”.

Regarding `CC(C)NP(=O)(NC(C)C)OP(=O)(NC(C)C)NC(C)C` [iso-OMPA], in data set [4], the “inhibition at 1 mM” value is reported as “iso-OMPA, a specific inhibitor of BChE, only inhibited SmBChE1 activity”.

In the case of SmAChE1 (Schistosoma mansoni), in data set [5], the Michaelis constant (Km) is given as 5.83 ± 1.62 mM and the maximal velocity (Vmax) stood at 0.00557 µmol/min/mg.

Regarding SmAChE2 (Schistosoma mansoni), in data set [5], the Km is on record as 10.87 ± 6.17 mM and the maximum rate (Vmax) is 0.00559 µmol/min/mg.

As for SmBChE1 (Schistosoma mansoni), in data set [6], the Km is listed as 34.38 ± 12.71 mM and the Vmax was found to be 0.0017 ± 9e-05 µmol/min/mg.
